B1: CD8B312 (antibody, human IgG1, kappa, V domains shown)
VH: QVQLQQPGADLVKPGASVKLSCKASGYTFTSFWMHWVKQRPGQGLEWIGNVDPSDSQTHYNQKFKDKATLTVDKSSNTAYMQLSSLTSEDSAVYYCARSTYYRYDGPFTYWGQGTTVTVSS
VL: DIVLTQSPATLSVTPGDSVSLSCRASQSINNNLHWYQQKSHESPRLLIKYTSQSISGIPSRFSGSGSGPDFTLSINSVETEDFGMYFCQQSNSWPLTFGGGTKLEIKR
notes: Full-length human IgG1, kappa; V regions recovered from mouse hybridoma
B2: CD8B350 (antibody, human IgG1, kappa, V domains shown)
VH: EVQLQQSGAELAKPGTSVKMSCKASGYTFAAYWINWLKQRPGQGLEWIGSINPSNGYTEYSQKFKDKAILTADKSSSTAYMQLSSLTSEDSAVYYCSRSGLYYTNHLAWCPYWGQGTTVTVSS
VL: DIVMTQSPASLSASVGETVTITCRASGNIHNYLAWYQQKQGKSPQVLVYNAETLADSVPSRFSGSGSGTQFSLKINSLQPEDFGNYYCQHFWNSPLTFGGGTKLEIKR
notes: as for B1
B3: CD8B271 (antibody, human IgG1, kappa, V domains shown)
VH: DVQLQESGPGLVAPSQSLSITCTVSGFSLSIYSIHWVRQPPGKGLEWLGMIWGGGDTDYNSALKSRLSISKDNSESQVFLKMNSLQTDDTAMYYCARNPHYYGGTYEYFDVWGTGTTVTVSS
VL: DIQMTQTTSSLSASLGDRVTISCSASQGISNYLNWYQQKPDGTVKLLIYDTSILYSGVPSRFSGSGSGTDYSLTISNLEPEDVATYYCQQYSNLPYTFGSGTKLEIKR
notes: as for B1
B4: CD8B347 (antibody, human IgG1, kappa)
heavy: not shown
light: DIQMTQSPASLSASVGETVTITCRASGNIHNYLAWYQQKQGKSPQLLVFNAETLADGVPSRFSGSGSGTQFSLKINSLQPEDFGTYYCQHFWNNPLTLGAGTKLELKRTVAAPSVFIFPPSDEQLKSGTASVVCLLNNFYPREAKVQWKVDNALQSGNSQESVTEQDSKDSTYSLSSTLTLSKADYEKHKVYACEVTHQGLSSPVTKSFNRGEC
notes: as for B1
B5: CD8B303 (antibody, human IgG1, kappa, V domains shown)
VH: QVQLKESGPGLVAPSQSLSITCTVSGFSLSIYSIHWVRQPPGKGLEWLGMIWGGGSTDYNSTLNSRLSIIKDNSKSQVFLKMNSLQTDDTAMYYCARNPHHYGGSTGAMDYWGQGTTVTVSS
VL: DVQMIQSPSSLSASLGGTVTITCKASQDIKKYMAWYQHKPGKGPRLLIHYTSSLQPGIPSRFSGSGSGRDYYFSISNLEPEDIATYFCLQYDNLFTFGSGTKLELKR
notes: as for B1
B6: CD8B182 (antibody, human IgG1, kappa, V domains shown)
VH: EVQLQQSGAALAKPGTSVKMSCKASGYTFTSYWMNWVRQRPGQGLEWIGAVNPTNYYTEYIQKFKDKAILTADKSSSTAYMHLSGLTSEDSAVYYCARSGLYNTNHLAWFAYWGQGTTVTVSS
VL: DIKMTQSPASLSASVGETVTITCRASENIHNYLAWYQQIQGKSPQLLVYNAKTLANGVPSRFSGSASGTQFSLTINSLQPEDFGSYYCQHFWTTPLTFGAGTKLELKR
notes: as for B1
B7: CD8B356 (antibody, human IgG1, kappa, V domains shown)
VH: DVQLQESGPGLVKPSQSLSLTCSVTGYSITSGYYWNWIRQFPGNKLEWMGYISYDGSNNYNPSLKNRISITRDTSKNQFFLKLNSVTTEDTATYYCVRNHGDAMDYWGQGTSVTVSS
VL: DIVLTQSQKFMSTTVGDRVSITCKASQNVGTAVAWYQQKPGQSPKLLIYSASYRYTGVPDRFTGSGSGTHFTLTISNMQSEDLADYFCQQYSSYLTFGSGTKLEIKR
notes: as for B1
B8: CD8B251 (antibody, human IgG1, kappa, V domains shown)
VH: QVQLKGSGPGLVQPSQSLSITCTVSGFSLTTYAVHWVRQSPGKGLEWLGVIWSGGSTDYNAAFISRLSISKDNSKSQVFFKMNSLQADDTAIYYCARHSYYHYNAMDNWGQGTSVTVSS
VL: DIKMTQSQKFMSTTVGDRVSITCKASQNVGTAVAWYQQKPGQSPKLLIYSASNRYTGVPDRFTGSGSGTDFTLTISNMQSEDLADYFCQQYSSYPFTFGSGTKLEIKR
notes: as for B1

Molecular target: T1, human CD8 on human pan T cells (CD4-negative population) (human, UniProt P01732 22-235; P10966 22-210)
T1 construct: whole, on cells; Endogenous CD8 on primary human pan T cells, read in the CD4-negative gate; also called CD8α/β
T1 sequence (P01732 22-235, chain 1 of 2): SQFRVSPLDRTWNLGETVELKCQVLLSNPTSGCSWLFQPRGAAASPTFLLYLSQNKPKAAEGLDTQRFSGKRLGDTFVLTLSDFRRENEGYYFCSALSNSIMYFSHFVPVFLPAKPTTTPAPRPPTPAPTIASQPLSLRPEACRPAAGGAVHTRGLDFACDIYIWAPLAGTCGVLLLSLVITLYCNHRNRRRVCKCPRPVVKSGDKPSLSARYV
T1 sequence (P10966 22-210, chain 2 of 2): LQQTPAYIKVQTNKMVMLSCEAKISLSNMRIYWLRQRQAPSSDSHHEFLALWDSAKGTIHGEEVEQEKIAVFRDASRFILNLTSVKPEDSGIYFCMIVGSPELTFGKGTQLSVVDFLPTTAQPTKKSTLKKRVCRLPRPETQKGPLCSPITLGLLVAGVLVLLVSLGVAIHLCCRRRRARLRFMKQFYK
Assay: flow cytometry, 20 nM antibody on human pan T cells, A647 anti-human IgG Fc; geomean ratio in CD4-negative population
Method: Cell binding. […] Percent CD8 positive population was calculated by percentage of CD8-positive cell count/live cell count.

Row | Cell Binding to Human PanT Signal/Background (of CD4 negative population) | Binder
1 | 1090 | B1
2 | 537 | B2
3 | 911 | B3
4 | 1200 | B4
5 | 1180 | B5
6 | 1490 | B6
7 | 777 | B7
8 | 37 | B8
